Assay results as given in article PMC5061367.

Experiments:
APOBEC3C I188 (human) [1] = molecular target: APOBEC3C I188 (human) (UniProt Q9NRW3); assay: cross-linking; 0.5 μM protein with 10 μM BS3 in 20 mM Hepes pH 7.5, 150 mM NaCl, 1 mM DTT, 1 hour at 21°C; SDS-PAGE and Western blot with anti-APOBEC3C
APOBEC3C I188 (human) [2] = molecular target: APOBEC3C I188 (human) (UniProt Q9NRW3); assay: SEC; 10 μg of purified enzyme on a 10 mL Superdex 200 column; 50 mM Tris pH 8.0, 200 mM NaCl, 1 mM DTT; masses from a Bio-Rad standard curve; fractions read by SDS-PAGE and Western blot

APOBEC3C I188 (from UniProt Q9NRW3 1-190) (enzyme)
stoichiometry N (APOBEC3C I188 (human) [1]): 2 | stoichiometry N (APOBEC3C I188 (human) [2]): 2
